{"source": "patent US10196454B2", "about": "“Anti-PMEL17 antibodies and immunoconjugates” (GENENTECH, INC., priority 2012, dated 2019)", "system": "cynomolgus monkey PMEL17", "sequence (as listed by the source)": "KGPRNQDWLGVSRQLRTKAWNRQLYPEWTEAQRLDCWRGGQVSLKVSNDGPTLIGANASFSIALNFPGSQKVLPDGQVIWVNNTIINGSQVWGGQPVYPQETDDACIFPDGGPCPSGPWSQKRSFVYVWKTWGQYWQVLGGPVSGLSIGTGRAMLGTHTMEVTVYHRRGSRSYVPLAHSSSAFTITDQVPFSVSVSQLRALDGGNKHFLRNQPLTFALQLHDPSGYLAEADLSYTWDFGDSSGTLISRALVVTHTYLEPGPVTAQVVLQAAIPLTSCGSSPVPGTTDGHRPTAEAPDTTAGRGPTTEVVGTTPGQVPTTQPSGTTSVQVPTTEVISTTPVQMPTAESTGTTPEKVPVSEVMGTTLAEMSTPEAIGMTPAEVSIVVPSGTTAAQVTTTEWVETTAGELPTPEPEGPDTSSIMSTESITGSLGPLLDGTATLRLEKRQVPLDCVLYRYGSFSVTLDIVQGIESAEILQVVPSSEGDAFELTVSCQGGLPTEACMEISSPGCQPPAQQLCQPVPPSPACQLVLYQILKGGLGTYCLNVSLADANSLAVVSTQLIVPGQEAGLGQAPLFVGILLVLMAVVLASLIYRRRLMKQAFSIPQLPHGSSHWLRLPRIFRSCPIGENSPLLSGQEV", "assay": "Species cross-reactivity by FACS, 293S cells stably transfected with gD tagged PMEL17", "assay_type": "binding", "conditions": "10 μg/ml antibody", "method": "Antibody 17A9 was tested to determine if it cross-reacts with PMEL17 from species other than human. […] All of the sequences include the signal sequence except for the cynomolgus monkey PMEL17. Residues that are identical among all four species are indicated by asterisks (*). In the region where the rat sequence has a deletion, residues that are identical among the remaining three species are indicated by a plus (+). Binding to each species of PMEL17 was determined by FACS analysis using 293S cells stably transfected with an N-terminal gD tagged PMEL17 (human, cynomolgus monkey, rat, or mouse PMEL17); stained with 10 μg/ml 17A9 antibody; and detected with R-Phycoerythrin conjugated goat anti-mouse antibody."}
{"molecule": "17A9 (antibody, listed as Mus musculus, V domains shown) VH: EVQLQQSGPELVKPGASMKISCKSSGYSFTRYTMNWVKQSHGKNLEWIGVINPYNGGTVYNQKFKGKATLTVDKSSSTAYMELLSLTSEDSAVYYCARTDYDGYAMDYWGQGTSVTVSS VL: DVQITQSPSYLAASPGETITINCRATKSISKYLAWYQEQPGKTNNLLIYSGSTLQSGIPSRFSGSGSGTDFTLTISSLEPEDFAMYYCQQHNEYPYTFGSGTKLEIK", "values": [{"measurement": "binding to cynomolgus monkey PMEL17 by FACS", "result": "bind"}]}
